# From IntAct's records for PubMed 15582318
# B1: Telethonin (Homo sapiens), O15273 (parent)
# chain: MATSELSCEVSEENCERREAFWAEWKDLTLSTRPEEGCSLHEEDTQRHETYHQQGQCQVLVQRSPWLMMRMGILGRGLQEYQLPYQRVLPLPIFTPAKMGATKEEREDTPIQLQELLALETALGGQCVDRQEVAEITKQLPPVVPVSKPGALRRSLSRSMSQEAQRG
# B2: Telethonin (Homo sapiens), O15273 (parent)
# chain: B1 chain
# partner: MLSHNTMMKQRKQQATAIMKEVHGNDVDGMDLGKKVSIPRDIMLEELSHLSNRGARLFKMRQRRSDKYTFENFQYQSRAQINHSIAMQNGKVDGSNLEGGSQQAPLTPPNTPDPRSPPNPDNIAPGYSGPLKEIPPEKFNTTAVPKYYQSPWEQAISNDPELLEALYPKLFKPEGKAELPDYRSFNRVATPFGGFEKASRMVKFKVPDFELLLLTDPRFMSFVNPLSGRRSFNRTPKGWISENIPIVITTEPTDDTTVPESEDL
# Variants of: B1
# Conditions: with titin_human TTN
row,effect of a mutation on the interaction,Variant
1,decreasing interaction strength,E132Q
2,increasing interaction strength,R153H

# Second part, the variant before the results:
row,Variant,effect of a mutation on the interaction
1,T137I,increasing interaction strength
2,R87Q,decreasing interaction strength

# Variants of: B1
# Conditions: with csrp3_human CSRP3, P50461
# Chain of csrp3_human CSRP3, P50461 (P50461 whole entry): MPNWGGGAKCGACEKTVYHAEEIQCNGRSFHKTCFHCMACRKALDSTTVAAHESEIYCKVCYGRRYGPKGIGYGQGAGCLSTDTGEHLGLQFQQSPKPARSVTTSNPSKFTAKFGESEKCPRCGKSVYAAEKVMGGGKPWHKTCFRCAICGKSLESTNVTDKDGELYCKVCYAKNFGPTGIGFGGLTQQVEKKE
row,effect of a mutation on the interaction,Variant
1,decreasing interaction strength,E132Q
2,decreasing interaction strength,R87Q

# Variants of: B2
# Conditions: with myoz2_human MYOZ2, Q9NPC6
row,effect of a mutation on the interaction,Variant
1,increasing interaction strength,R153H
2,decreasing interaction strength,R87Q

# More lines, now with the values behind:
row,Variant,effect of a mutation on the interaction
1,T137I,increasing interaction strength
2,E132Q,decreasing interaction strength
